# Source: patent US6348311B1, “ATM kinase modulation for screening and therapies” (St. Jude Childre's Research Hospital, priority 1999, dated 2002)
# Where a SMILES comes first, the peptide text is derived from it. Where no end group is shown, it is not given here. [ ]: non-standard residue; d: D form. Nle = CCCC[C@H](N)C(=O)O
# Legend:
# [1] = system: p53 phosphoserine 15; assay: p53 Ser15 phosphorylation in lymphoblasts (immunoprecipitation and immunoblot); format: cell-based, human; conditions: ALLN 90 min
# Protocol: Posttranslational modification of p53 on Ser^15 in response to ionizing radiation. Monoclonal antibodies against a chemically synthesized p53 phosphoserine-15 peptide (amino acids 9-22) were used to immunoblot synthetic peptides (1×, 50 μg) consisting of the first 24 amino acids of p53 with (1-24^S15-P) or without (1-24) phosphoserine 15. Normal WT (2184) or AT (1526) lymphoblasts were untreated or treated with 5 Gy IR (IR) or 20 mM ALLN for 90 min. p53 was immunoprecipitated, subjected to SDS-PAGE (7.5% gel), transferred to nitrocellulose, and immunoblotted with the monoclonal antibody to phosphoserine 15 p53 (upper panel). Blots were then stripped and immunoblotted with antibodies to p53 (lower panel).
# Normal (2184) and AT (1526) EBV immortalized human lymphoblasts were irradiated with a ^137Cs source or treated with 20 mm ALLN (Sigma) for 90 min. Cells were then harvested, lysed, and p53 was immunoprecipitated as described (Siliciano et al., Genes Dev., 11:3471, 1997). Immunoprecipitates were resolved by non-reducing SDS-PAGE, transferred to nitrocellulose and immunoblotted with monoclonal antibody to phosphoserine 15. Blots were stripped and reprobed with p53-specific monoclonal antibodies (Ab-2 and Ab-6).
# [2] = system: ATM kinase; assay: ATM immunoprecipitated from SY5Y neuroblastoma cells after IGF-I, in vitro kinase assay with GST-p53; format: cell-based; conditions: differentiated SY5Y cells, 10nM IGF-I
# Protocol: Since the growth factor and survival factor insulin-like growth factor (IGF)-I activates cellular signaling in a manner similar to insulin, the insulin observations above led us to also investigate whether IGF-I might activate ATM kinase. […] Undifferentiated and differentiated SY5Y cells were treated with IGF-I and ATM activation was assessed.
# ATM was immunoprecipitated from either undifferentiated or differentiated SY5Y neuroblastoma cells after treatment with 10nM IGF-I (control cells were untreated). The immunoprecipitated ATM was then used in an in vitro kinase assay with the GST-p53 protein as the substrate. Equivalent amounts of ATM and GST-p53 were used.
# [3] = system: 4E-BP1 bound to eIF-4E; assay: Insulin induced release of 4E-BP1 from eIF-4E in fibroblasts (Western blot); format: cell-based, mice
# Protocol: Fibroblasts from normal or AT mice were treated with (+) or without (−) insulin and total cellular and complexed eIF-4E and 4E-BP1 were examined by Western blot. Total cellular eIF-4E and 4E-BP1 were unchanged by insulin treatment. The amount of 4E-BP1 bound to eIF-4E was examined by immunoprecipitating eIF-4E with a methyl-G column and then blotting for both proteins.
# [4] = system: ATM kinase; assay: ATM immunoprecipitated from differentiated 3T3-L1 cells with or without insulin, in vitro kinase assay with GST-4E-BP1; format: cell-based; conditions: GST-4E-BP1 substrate
# Source text: ATM was immunoprecipitated from 3T3-L1 after differentiation and without (−) or with (+) exposure to insulin. The immunoprecipitated ATM was then used in an in vitro kinase assay with GST-4E-BP1 protein as the substrate. Equivalent amounts of ATM and GST-4E-BP1 were used.
# [5] = system: p95 Ser343 phosphorylation; assay: IR-induced phosphorylation of Myc-p95 on Ser343 in co-transfected 293T cells; format: cell-based; conditions: co-transfected with p95 into 293T cells, 5 Gy IR
# Source text: FIGS. 4A and 4B. In vivo phosphorylation of p95 on ser343 by ATM upon ionizing irradiation. (A) Phosphorylation of p95 on Ser343 by IR in an ATM-dependent manner in vivo. […] The expression of Flag-ATM in each cell lysates was detected with anti-Flag antibody (top panel). Immunoprecipitated Myc-p95 was blotted with anti-a-p95-phosphoserine 343 antibody (middle panel) or anti-Myc antibody (lower panel). (B) Phosphorylation of endogenous p95 on Ser343 in normal cells, but not AT cells, after IR. Normal (WT, GM0536) or AT (GM1526) lymphoblasts were treated with either 0 (−) or 5 (+) Gy IR. Endogenous p95 was immunoprecipitated and blotted with anti-a-p95-phosphoserine 343 antibody (top panel) or anti-p95 antibody (lower panel).
# In vivo phosphorylation of p95. Myc-tagged p95 (3 μg) was transiently co-transfected into 293T cells with wtATM, kdATM, or pCDNA3 (7μg) using calcium phosphate. After 2 days, cells were harvested and Myc-p95 was immunoprecipitated, subjected to SDS-PAGE (7.5%), transferred to nitrocelluose, and immunoblotted with α-cMyc antibody or the α-p95-phosphoserine 343 polyclonal mouse antibody. For metabolic labeling, the cells were washed with phosphate free RPMI plus 10% dialyzed fetal bovine serum and incubated for 30 min before irradiation. […] After electrophoresis in 7.5% SDS-PAGE, radiolabeled p95 and ATM were visualized and quantified on a PhosphorImager.
# [6] = target: T1, ATM kinase (Homo sapiens, UniProt Q13315); assay: In vitro kinase assay, ATM with GST-peptide / GST-fusion substrates; format: biochemical; conditions: GST-peptide substrate; relative to the p53ser15 site;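 also: immunoprecipitated ATM incubated with [γ-32P]ATP at 30 °C for 20 min, substrates resolved by SDS-PAGE and radiolabel incorporation quantified by PhosphorImager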
# T1 construct: The full-length cDNA encoding NH2-terminal, FLAG-tagged wild-type ATM; made in house; host or cells: 293T cells, transient transfection with pcDNA-FLAG-ATMwt, anti-FLAG M2 immunoprecipitate on beads
# [7] = target: DNA-PK (Homo sapiens, UniProt P78527); assay: In vitro kinase assay, purified DNA-PK with GST-peptide / GST-fusion substrates; format: biochemical; conditions: GST-peptide substrate; relative to the p53ser15 site
# Protocol: (§1) FIGS. 1A, 1B, and 1C. Phosphorylation of GST-p53 mutant peptides (amino acids 9-21) by ATM, ATR, and DNA-PK in vitro. In vitro kinase assays with immunoprecipitated, transfected flag-tagged ATM (A) or ATR (B) or purified DNA-PK (C) were performed with GST-p53 peptides containing the amino acid substitutions indicated. The amount of 32P-labeled GST-peptides was quantitated with a PhosphorImager and was normalized for each of the kinases to the level of phosphorylation of wild-type GST-p53.
# (§2) FIGS. 2A, 2B, and 2C. Phosphorylation of candidate targets of by ATM, ATR and DNA-PK in vitro. GST-peptides containing the putative target sequences were used as substrates for the kinase assay.
# (§3) Plasmids and GST-fusion protein production. For GST fusion peptide expression vectors, complementary oligonucleotides encoding desired peptides (14 amino acids) were cloned into the BamHI/SmaI site of pGEX-2T (Pharmacia). The constructs were confirmed by restriction enzyme digests and DNA sequencing. To construct the larger GST-p95 (327-391) protein fragment, p95 DNA encoding amino acids 327-391 was amplified by PCR with Pfu polymerase using the following primers: 5′ sense,
# In vitro kinase assays and immunoprecipitation. […] Cleared supernatants were immunoprecipitated with anti-Flag M2 antibody and protein A/G agarose, the beads were washed with TGN buffer followed by TGN buffer plus 0.5 M LiCl, and two washes with kinase buffer [20 mM HEPES (pH 7.5), 50 mM NaCl, 10 mM MgCl2, 1 mM dithiothreitol (DTT) and 10 mM MnCl2]. […] ATP and […] of GST-fusion substrate (GST-p53:1-101), in varying concentration of Mn^2+. The kinase reaction was conducted at 30° C. for 20 min and stopped by the addition of SDS-PAGE loading buffer. Proteins were separated on SDS-polyacrylamide gel electrophoresis (SDS-PAGE) and transferred to nitrocellulose. Radiolabeled proteins were visualized and quantitated on a Phosphorimager (Molecular Dynamics). Use of equivalent amounts of flag-tagged ATM or ATR in the different lanes was confirmed by immunoblotting with anti-flag antibody. In some reactions, either supercoiled DNA (pBluescript II KS, Stratagene) or linearized DNA (pBluescript II KS cut with EcoR1) was added ([…]). For endogenous ATM kinase reactions, endogenous ATM was immunoprecipitated from GM0536 lymphhoblasts with ATM monoclonal antibody (D16.11) in M buffer (PBS, 10% glycerol, 0.2% Tween 20, 0.3% NP-40, 1 mM NaF, 1 mM Na3VO4, 1 mM PMSF, 1x protease inhibitor mixture]. After washing with M buffer and kinase buffer, in vitro kinase reactions were carried out according to procedures described above. The DNA-PK in vitro kinase reaction was performed as previously described (Gottlieb and Jackson, 1993), using 20 ng each of DNA-PKcs or DNA-PK (20 ng DNA-PKcs premixed with 20 ng Ku 70/80).
# [8] = target: T2, ATR (Homo sapiens, UniProt Q13535); assay: In vitro kinase assay, ATR with GST-peptide / GST-fusion substrates; format: biochemical; conditions: GST-peptide substrate; relative to the p53ser15 site
# T2 construct: made in house; host or cells: 293T cells, transient transfection with pBJF-FRPwt, anti-FLAG M2 immunoprecipitate
# Protocol: as §1, §2
# Transfection and Kinase Activity Assays. 293T cells were transiently transfected with 10 μg of either pcDNA-FLAG-ATMwt, pcDNA-FLAG-ATMkd, pBJF-FRPwt or pBJF-FRPkd (Cliby et al., EMBO J., 17:159, 1998) using calcium phosphate and harvested two days later. Cells were lysed through sonication in TGN buffer [50 mM Tris (pH 7.5), 50 mM glycerophosphate, 150 mM NaCl, 10% glycerol, 1% Tween 20, 1 mM NaF, 1 mM NaVO4, 1 mM PMSF, […] Pepstatin A, 5 μg/ml leupeptin, 10 μg/ml Aprotinin and 1 mM DTT] as described (Brunn et al., Science, 277:99-101,1997). After centrifugation at 13,000 ×g, 2 mg of extract were incubated with mouse IgG and protein A/G sepharose beads (Calbiochem). FLAG-tagged proteins were then immunoprecipitated with anti-FLAG M2 monoclonal antibody (Eastman Kodak Company) and protein A/G sepharose beads. Immunoprecipitates were washed twice with TGN buffer, once with 100 mM Tris (pH 7.5) plus 0.5 M LiCl, and twice with kinase buffer [10 mM Hepes (pH 7.5), 50 mM glycerophosphate, 50 mM NaCl, 10 mM MgCl2, 10 mM MnCl2, 5 μM ATP, and 1 mM DTT]. Kinase reactions were initiated by resuspending washed beads in 30 μl of kinase buffer containing 10 μCi [γ-^32P]ATP and 1 μg GSTp531-101 and incubated for 30 minutes at 30° C. Proteins were electrophoretically separated by SDS-polyacrylamide gel electrophoresis, transferred to nitrocellulose, and analyzed on a PhosphorImager. FLAG-tagged proteins and GSTp531-101 were subjected to immunoblotting with either anti-FLAG M2 antibody or monoclonal antibodies directed towards the NH2-terminus of p53 (Ab-2 and Ab-6, Calbiochem) as described (Siliciano et al., Genes Dev., 11:3471, 1997).
# Phosphorylation of Ser^15 of p53 by ATM and ATR/FRP1 in vitro. […] Proteins from each reaction were separated by SDS polyacrylamide gel electrophoresis (7% gel), transferred to nitrocellulose, and analyzed either on a PhosphorImager or by immunoblotting. Amounts of FLAG-tagged ATM or ATR in each kinase reaction were measured by immunoblotting with anti-FLAG M2 (top panel) and amount of [γ^32P]phosphate incorporated into ATM or ATR during the reaction (lower panel). […] An upper immunoreactive band represents phosphorylated GSTp53 fusion protein. The same exposures were used for ATM, ATR/FRP1 and corresponding substrate proteins.
# as §3
# In vitro kinase assays and immunoprecipitation. […] Cleared supernatants were immunoprecipitated with anti-Flag M2 antibody and protein A/G agarose, the beads were washed with TGN buffer followed by TGN buffer plus 0.5 M LiCl, and two washes with kinase buffer [20 mM HEPES (pH 7.5), 50 mM NaCl, 10 mM MgCl2, 1 mM dithiothreitol (DTT) and 10 mM MnCl2]. […] ATP and […] of GST-fusion substrate (GST-p53:1-101), in varying concentration of Mn^2+. […]
# T2 sequence (Q13535 whole entry, the tested form may be a part): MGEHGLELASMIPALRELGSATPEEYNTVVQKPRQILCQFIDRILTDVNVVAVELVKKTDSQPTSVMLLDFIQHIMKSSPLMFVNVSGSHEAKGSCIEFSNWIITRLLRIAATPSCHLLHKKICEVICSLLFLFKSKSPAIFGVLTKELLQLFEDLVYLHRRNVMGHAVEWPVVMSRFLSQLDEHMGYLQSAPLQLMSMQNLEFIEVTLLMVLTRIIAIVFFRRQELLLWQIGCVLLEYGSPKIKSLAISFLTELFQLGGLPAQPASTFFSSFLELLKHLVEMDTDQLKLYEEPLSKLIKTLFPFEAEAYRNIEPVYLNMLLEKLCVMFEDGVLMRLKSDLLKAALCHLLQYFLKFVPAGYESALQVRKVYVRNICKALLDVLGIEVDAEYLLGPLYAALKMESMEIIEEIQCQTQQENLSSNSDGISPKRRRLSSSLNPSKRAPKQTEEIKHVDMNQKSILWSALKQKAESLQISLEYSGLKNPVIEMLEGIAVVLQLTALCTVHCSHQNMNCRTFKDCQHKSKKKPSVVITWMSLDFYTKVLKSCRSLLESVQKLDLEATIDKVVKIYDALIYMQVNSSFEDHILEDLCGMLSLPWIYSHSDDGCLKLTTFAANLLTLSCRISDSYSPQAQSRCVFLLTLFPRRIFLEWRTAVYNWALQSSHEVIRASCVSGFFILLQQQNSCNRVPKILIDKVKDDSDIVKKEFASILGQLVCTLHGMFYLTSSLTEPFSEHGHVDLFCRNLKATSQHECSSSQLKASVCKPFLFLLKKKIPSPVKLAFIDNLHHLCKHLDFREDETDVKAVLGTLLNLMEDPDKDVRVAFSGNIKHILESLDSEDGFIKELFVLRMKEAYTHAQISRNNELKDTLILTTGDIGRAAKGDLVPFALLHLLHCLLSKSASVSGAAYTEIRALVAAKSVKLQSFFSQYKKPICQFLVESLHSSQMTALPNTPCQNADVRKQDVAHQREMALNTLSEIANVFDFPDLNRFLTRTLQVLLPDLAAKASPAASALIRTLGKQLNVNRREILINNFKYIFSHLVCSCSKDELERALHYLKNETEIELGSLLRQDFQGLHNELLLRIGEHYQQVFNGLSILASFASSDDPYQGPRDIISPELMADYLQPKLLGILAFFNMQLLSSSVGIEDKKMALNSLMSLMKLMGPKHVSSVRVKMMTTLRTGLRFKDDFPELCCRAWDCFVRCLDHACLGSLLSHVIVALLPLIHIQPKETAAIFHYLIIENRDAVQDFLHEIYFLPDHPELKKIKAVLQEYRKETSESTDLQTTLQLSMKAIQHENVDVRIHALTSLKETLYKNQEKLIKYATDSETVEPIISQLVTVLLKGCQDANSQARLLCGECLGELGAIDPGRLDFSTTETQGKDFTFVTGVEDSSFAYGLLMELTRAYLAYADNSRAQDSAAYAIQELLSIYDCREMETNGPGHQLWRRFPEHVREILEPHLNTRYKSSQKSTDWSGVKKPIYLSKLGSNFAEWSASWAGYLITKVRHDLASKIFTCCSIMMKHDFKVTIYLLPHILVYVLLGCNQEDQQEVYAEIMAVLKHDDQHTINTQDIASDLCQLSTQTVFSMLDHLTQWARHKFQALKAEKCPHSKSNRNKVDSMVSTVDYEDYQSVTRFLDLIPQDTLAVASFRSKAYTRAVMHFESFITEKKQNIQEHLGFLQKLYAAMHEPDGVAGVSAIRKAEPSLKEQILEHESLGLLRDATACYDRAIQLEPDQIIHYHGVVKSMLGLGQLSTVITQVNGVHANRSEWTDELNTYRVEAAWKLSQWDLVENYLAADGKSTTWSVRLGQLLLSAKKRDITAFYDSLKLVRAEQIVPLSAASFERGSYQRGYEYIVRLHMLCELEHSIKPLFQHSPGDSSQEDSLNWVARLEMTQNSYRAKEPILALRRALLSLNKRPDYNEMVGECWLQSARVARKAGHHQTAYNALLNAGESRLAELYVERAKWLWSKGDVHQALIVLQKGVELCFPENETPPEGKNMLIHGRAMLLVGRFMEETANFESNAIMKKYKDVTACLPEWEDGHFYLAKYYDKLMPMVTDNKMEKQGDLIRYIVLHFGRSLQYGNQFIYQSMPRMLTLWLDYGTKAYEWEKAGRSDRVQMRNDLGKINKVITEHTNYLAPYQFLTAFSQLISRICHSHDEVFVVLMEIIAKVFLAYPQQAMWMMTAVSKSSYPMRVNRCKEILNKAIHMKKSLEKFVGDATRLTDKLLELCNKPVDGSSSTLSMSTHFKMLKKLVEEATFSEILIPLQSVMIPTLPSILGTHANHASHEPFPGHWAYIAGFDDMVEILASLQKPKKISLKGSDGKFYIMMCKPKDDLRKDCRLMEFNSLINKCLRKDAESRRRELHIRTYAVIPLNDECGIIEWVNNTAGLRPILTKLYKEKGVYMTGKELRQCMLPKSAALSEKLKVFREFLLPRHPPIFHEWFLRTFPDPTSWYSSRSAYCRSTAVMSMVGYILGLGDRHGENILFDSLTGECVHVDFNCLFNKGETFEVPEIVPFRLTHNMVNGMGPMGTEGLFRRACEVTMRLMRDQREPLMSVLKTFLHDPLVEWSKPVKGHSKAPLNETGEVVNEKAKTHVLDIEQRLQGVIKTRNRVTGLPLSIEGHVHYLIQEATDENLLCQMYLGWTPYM
compound,measurement,setting,value
"CCCC[C@@H](C=O)NC(=O)[C@H](CC(C)C)NC(=O)[C@H](CC(C)C)NC(C)=O [ALLN, acetyl-Leu-Leu-norleucinal] (Ac-Leu-Leu-[Nle]-aldehyde)",effect on p53 protein,[1]; lymphoblasts,stabilization of p53 protein
same,Phosphoserine 15 of p53,[1]; normal lymphoblasts,undetectable
"IGF-I: insulin-like growth factor (IGF)-I, growth and neuronal survival factor",ATM kinase activity after IGF-I treatment,[2],significantly enhanced
Insulin: insulin,release of 4E-BP1 from eIF-4E,[3]; AT cells (A38),much less 4E-BP1 was released
same,release of 4E-BP1 from eIF-4E,[3]; normal cells (A29),caused a release of 4E-BP1 from eIF-4E
same,ATM kinase activity after insulin treatment,[4],significantly enhanced
"kinase-inactive form of ATM: FLAG-tagged full-length ATM mutant D2870A and N2875K, kinase-dead, dominant-negative",IR-induced phosphorylation of p95ser343,[5],significantly inhibited
"β3A Adaptin: GST-peptide ELKPVLSQG (SEQ ID NO:43), S1092 (not fully specified (N-terminus); also: GST fusion; listed as Homo sapiens)",Relative Phosphorylation (%) ATM,[6],6%
same,Relative Phosphorylation (%) DNA-PK,[7],44%
same,Relative Phosphorylation (%) ATR,[8],22%
"β-ADAPTIN: GST-peptide CRAPEVSQHVYQAY (SEQ ID NO:28), S935 (not fully specified (N-terminus); also: GST fusion; listed as Homo sapiens)",Relative Phosphorylation (%) ATM,[6],5%
same,Relative Phosphorylation (%) DNA-PK,[7],2%
same,Relative Phosphorylation (%) ATR,[8],22%
